Measured values from patent publication US20210371505A1.

What was measured:
Assay in all cases: cell-based or functional assay
[1] = target: Hemagglutinin of influenza virus A/Aichi/02/1968-PR8-X31 (H3N2) (Influenza A virus A/Aichi/02/1968-PR8-X31 (H3N2)) (UniProt P03437)
[2] = target: Hemagglutinin of influenza virus A/Philippines/01/1982 (H3N2) (Influenza A virus A/Philippines/01/1982 (H3N2))
[3] = target: Hemagglutinin of influenza virus A/Shanghai/01/2013-PR8 (H7N9) (Influenza A virus A/Shanghai/01/2013-PR8 (H7N9))

B1: H1H14612N2 (antibody, V domains shown)
VH: EVQLVESGGGLVKPGGSLRLSCAASGFSFSGFSMNWVRQAPGKGLEWVSSISTSGNYMYYADSVKGRFTISRDNAKKSFSLQMNSLRAEDSAIYYCARGGGYNWNLFDYWGQGSLVTVSS
VL: EIVLTQSPGTLSLSPGERATLSCRASQSLNSNYLAWYQQKPGQAPRLLIYGASSRATGIPDRFSGSGSGADFTLTISRLESEDFAVYYCQQYGNSPLTFGGGTKVEIK
Binder B1 has an EC50, complement-dependent cytotoxicity of virus-infected MDCK cells [1] of 0.126 µM, an IC50 of neutralization, cell viability microneutralization assay on MDCK cells [1] of 0.0057 µM and a maximum lysis, complement-dependent cytotoxicity of virus-infected MDCK cells [1] of 86.3%. The IC50 of neutralization, cell viability microneutralization assay on MDCK cells [2] was 0.0376 µM and the IC50 of neutralization, cell viability microneutralization assay on MDCK cells [3] was greater than 6.67 µM.
